B1: ATGL (PNPLA2, patatin-like phospholipase domain-containing protein 2), human, full length / CGI-58 (ABHD5, 1-acylglycerol-3-phosphate O-acyltransferase ABHD5), human (parent)
chain 1: MFPREKTWNISFAGCGFLGVYYVGVASCLREHAPFLVANATHIYGASAGALTATALVTGVCLGEAGAKFIEVSKEARKRFLGPLHPSFNLVKIIRSFLLKVLPADSHEHASGRLGISLTRVSDGENVIISHFNSKDELIQANVCSGFIPVYCGLIPPSLQGVRYVDGGISDNLPLYELKNTITVSPFSGESDICPQDSSTNIHELRVTNTSIQFNLRNLYRLSKALFPPEPLVLREMCKQGYRDGLRFLQRNGLLNRPNPLLALPPARPHGPEDKDQAVESAQAEDYSQLPGEDHILEHLPARLNEALLEACVEPTDLLTTLSNMLPVRLATAMMVPYTLPLESALSFTIRLLEWLPDVPEDIRWMKEQTGSICQYLVMRAKRKLGRHLPSRLPEQVELRRVQSLPSVPLSCAAYREALPGWMRNNLSLGDALAKWEECQRQLLLGLFCTNVAFPPEALRMRAPADPAPAPADPASPQHQLAGPAPLLSTPAPEARPVIGALGL
chain 2: MAAEEEEVDSADTGERSGWLTGWLPTWCPTSISHLKEAEEKMLKCVPCTYKKEPVRISNGNKIWTLKFSHNISNKTPLVLLHGFGGGLGLWALNFGDLCTNRPVYAFDLLGFGRSSRPRFDSDAEEVENQFVESIEEWRCALGLDKMILLGHNLGGFLAAAYSLKYPSRVNHLILVEPWGFPERPDLADQDRPIPVWIRALGAALTPFNPLAGLRIAGPFGLSLVQRLRPDFKRKYSSMFEDDTVTEYIYHCNVQTPSGETAFKNMTIPYGWAKRPMLQRIGKMHPDIPVSVIFGARSCIDGNSGTSIQSLRPHSYVKTIAILGAGHYVYADQPEEFNQKVKEICDTVD

Variants of: B1
Assay: LUMIER: Protein A-ATGL variant and firefly luciferase-partner co-expressed in HEK293T, lysates immunoprecipitated on IgG-coated plates, co-precipitated partner measured as luciferase luminescence
Conditions: with CGI-58 (ABHD5, 1-acylglycerol-3-phosphate O-acyltransferase ABHD5), transient co-transfection, IgG-coated LUMITRAC plates, 2 h at 4 °C, three PBS washes, Bright-Glo luciferase reagent, triplicates per assay, two …, scale: log2 fold change of co-immunoprecipitated luminescence relative to wild-type ATGL within each experiment

Row | Variant | screen value (parent: 0.32, not graded) | screen value (parent: 0.45, not graded)
1 | chain 1 MFPREKTWNISFAGCGFLGVYYVGVASCLREHAPFLVAEATHIYGASAGALTATALVTGVCLGEAGAKFIEVSKEARKRFLGPLHPSFNLVKIIRSFLLKVLPADSHEHASGRLGISLTRVSDGENVIISHFNSKDELIQANVCSGFIPVYCGLIPPSLQGVRYVDGGISDNLPLYELKNTITVSPFSGESDICPQDSSTNIHELRVTNTSIQFNLRNLYRLSKALFPPEPLVLREMCKQGYRDGLRFLQRNGLLNRPNPLLALPPARPHGPEDKDQAVESAQAEDYSQLPGEDHILEHLPARLNEALLEACVEPTDLLTTLSNMLPVRLATAMMVPYTLPLESALSFTIRLLEWLPDVPEDIRWMKEQTGSICQYLVMRAKRKLGRHLPSRLPEQVELRRVQSLPSVPLSCAAYREALPGWMRNNLSLGDALAKWEECQRQLLLGLFCTNVAFPPEALRMRAPADPAPAPADPASPQHQLAGPAPLLSTPAPEARPVIGALGL [chain 1 N39E] | -0.3 | -0.215
2 | chain 1 MFPREKTWNISFAGCGFLGVYYVGVASCLREHAPFLVANATHIYGASAGALTATALVTGVCLGEAGAKFIEVSKEARKRFLGPLHPSFNLVKIIRSFLLKVLPADSHEHASGRLGISLTRVSDGENVIISHFNSKDELIQANVCSGFIPVYCGLIPPSLQGVRYVDGGISDNLPLYEAKNTITVSPFSGESDICPQDSSTNIHELRVTNTSIQFNLRNLYRLSKALFPPEPLVLREMCKQGYRDGLRFLQRNGLLNRPNPLLALPPARPHGPEDKDQAVESAQAEDYSQLPGEDHILEHLPARLNEALLEACVEPTDLLTTLSNMLPVRLATAMMVPYTLPLESALSFTIRLLEWLPDVPEDIRWMKEQTGSICQYLVMRAKRKLGRHLPSRLPEQVELRRVQSLPSVPLSCAAYREALPGWMRNNLSLGDALAKWEECQRQLLLGLFCTNVAFPPEALRMRAPADPAPAPADPASPQHQLAGPAPLLSTPAPEARPVIGALGL [chain 1 L178A] | -0.598 | -0.392
3 | chain 1 MFPREKTWNISFAGCGFLGVYYVGVASCLREHAPFLVANATHIYGASAGALTATALVTGVCLGEAGAKFIEVSKEARKRFLGPLHPSFNLVKIILSFLLKVLPADSHEHASGRLGISLTRVSDGENVIISHFNSKDELIQANVCSGFIPVYCGLIPPSLQGVRYVDGGISDNLPLYELKNTITVSPFSGESDICPQDSSTNIHELRVTNTSIQFNLRNLYRLSKALFPPEPLVLREMCKQGYRDGLRFLQRNGLLNRPNPLLALPPARPHGPEDKDQAVESAQAEDYSQLPGEDHILEHLPARLNEALLEACVEPTDLLTTLSNMLPVRLATAMMVPYTLPLESALSFTIRLLEWLPDVPEDIRWMKEQTGSICQYLVMRAKRKLGRHLPSRLPEQVELRRVQSLPSVPLSCAAYREALPGWMRNNLSLGDALAKWEECQRQLLLGLFCTNVAFPPEALRMRAPADPAPAPADPASPQHQLAGPAPLLSTPAPEARPVIGALGL [chain 1 R95L] | -0.121 | -0.396
4 | chain 1 MFPREKTWNISFAGCGFLGVYYVGVASCLREHAPFLVANATHIYGASAGALTATALVTGVCLGEAGAKFIEVSKEARKRFLGPLHPSFNLVKIIRSFLLKVLPADSHEHASGRLGISLTRVSDGENVIISHFNSKDELIQANVCSGFIPVYCGLIPPSLQGVRYVDGGISDNLPLYELKNTITVSPFSGESDICPQDSSTNIHELRVTNTSIQFNLRNLYRLSKALFPPEPLVLREMCKQGYRDGLRFLQRNGLLNRPNPLLALPPARPHGPEDKDQAVESAQAEDYSQLPGEDHILEHLPARLNEALLEACVAPTDLLTTLSNMLPVRLATAMMVPYTLPLESALSFTIRLLEWLPDVPEDIRWMKEQTGSICQYLVMRAKRKLGRHLPSRLPEQVELRRVQSLPSVPLSCAAYREALPGWMRNNLSLGDALAKWEECQRQLLLGLFCTNVAFPPEALRMRAPADPAPAPADPASPQHQLAGPAPLLSTPAPEARPVIGALGL [chain 1 E314A] | -0.218 | -0.112
5 | chain 1 MFPREKTWNISFAGCGFLGVYYVGVASCLREHAPFLVANATHIYGASAGALTATALVTGVCLGEAGAKFIEVSKEARKRFLGPLHPSFNLVKIIRSFLLKVLPADSHEHASGRLGISLTRVSDGENVIISHFNSKDELIQANVCSGFIPVYCALIPPSLQGVRYVDGGISDNLPLYELKNTITVSPFSGESDICPQDSSTNIHELRVTNTSIQFNLRNLYRLSKALFPPEPLVLREMCKQGYRDGLRFLQRNGLLNRPNPLLALPPARPHGPEDKDQAVESAQAEDYSQLPGEDHILEHLPARLNEALLEACVEPTDLLTTLSNMLPVRLATAMMVPYTLPLESALSFTIRLLEWLPDVPEDIRWMKEQTGSICQYLVMRAKRKLGRHLPSRLPEQVELRRVQSLPSVPLSCAAYREALPGWMRNNLSLGDALAKWEECQRQLLLGLFCTNVAFPPEALRMRAPADPAPAPADPASPQHQLAGPAPLLSTPAPEARPVIGALGL [chain 1 G153A] | -0.595 | -0.455
6 | chain 1 MFPREKTWNISFAGCGFLGVYYVGVASCLREHAPFLVANATHIYGASAGALTATALVTGVCLGEAGAKFIEVSKEARKRFLGPLHPSFNLVKIIRSFLLKVLPADSHEHASGRLGISLTRVSDGENVIISHFNSKDELIQANVCSGFIPVYCGLIPPSAQGVRYVDGGISDNLPLYELKNTITVSPFSGESDICPQDSSTNIHELRVTNTSIQFNLRNLYRLSKALFPPEPLVLREMCKQGYRDGLRFLQRNGLLNRPNPLLALPPARPHGPEDKDQAVESAQAEDYSQLPGEDHILEHLPARLNEALLEACVEPTDLLTTLSNMLPVRLATAMMVPYTLPLESALSFTIRLLEWLPDVPEDIRWMKEQTGSICQYLVMRAKRKLGRHLPSRLPEQVELRRVQSLPSVPLSCAAYREALPGWMRNNLSLGDALAKWEECQRQLLLGLFCTNVAFPPEALRMRAPADPAPAPADPASPQHQLAGPAPLLSTPAPEARPVIGALGL [chain 1 L159A] | -0.737 | -0.542

From paper PMC10958042
